B1: Cyanocobalamin reductase / alkylcobalamin dealkylase (Homo sapiens), Q9Y4U1 (parent)
chain: MEPKVAELKQKIEDTLCPFGFEVYPFQVAWYNELLPPAFHLPLPGPTLAFLVLSTPAMFDRALKPFLQSCHLRMLTDPVDQCVAYHLGRVRESLPELQIEIIADYEVHPNRRPKILAQTAAHVAGAAYYYQRQDVEADPWGNQRISGVCIHPRFGGWFAIRGVVLLPGIEVPDLPPRKPHDCVPTRADRIALLEGFNFHWRDWTYRDAVTPQERYSEEQKAYFSTPPAQRLALLGLAQPSEKPSSPSPDLPFTTPAPKKPGNPSRARSWLSPRVSPPASPGP

Variants of: B1
Conditions: with meth_human MTR

| effect of a mutation on the interaction | Variant |
| --- | --- |
| decreasing interaction strength | MEPKVAELKQKIEDTLCPFGFEVYPFQVAWYNELLPPAFHLPLPGPTLAFLVLSTPAMFDRALKPFLQSCHLRMLTDPVDQCVAYHLGRVRESLPELQIEIIADYEVHPNRRPKILAQTAAHVAGAAYYYQRQDVEADPWGNQRISGVCIHPRFGGWFAIQGVVLLPGIEVPDLPPRKPHDCVPTRADRIALLEGFNFHWRDWTYRDAVTPQERYSEEQKAYFSTPPAQRLALLGLAQPSEKPSSPSPDLPFTTPAPKKPGNPSRARSWLSPRVSPPASPGP [R161Q] |
| decreasing interaction strength | MEPKVAELKQKIEDTLCPFGFEVYPFQVAWYNELLPPAFHLPLPGPTLAFLVLSTPAMFDRALKPFLQSCHLRMLTDPVDQCVAYHLGRVRESLPELQIEIIADYEVHPNRRPKILAQTAAHVAGAAYYYQRQDVEADPWGNQRISGVCIHPRFGGWFAIRGVVLLPGIEVPDLPPRKPHDCVPTRADRIALLEGFNFHWRDWTYWDAVTPQERYSEEQKAYFSTPPAQRLALLGLAQPSEKPSSPSPDLPFTTPAPKKPGNPSRARSWLSPRVSPPASPGP [R206W] |
